According to article PMC8745299, “Generation of Lasso Peptide-Based ClpP Binders” (International Journal of Molecular Sciences, 2021):
Bridge positions count the residues as written; N and C are the ends. Ends that are not written are not given here.

How the values were obtained:
SaClpP = target: T1, SaClpP (Staphylococcus aureus, UniProt Q2G036); test: Peptide (Suc-LY-AMC) degradation by SaClpP in destabilizing Tris buffer pH 8; format: biochemical, S. aureus; parameters: Strep-tag (C); made in house; host or cells: E. coli BL21 (DE3)
T1 sequence (Q2G036 1-195): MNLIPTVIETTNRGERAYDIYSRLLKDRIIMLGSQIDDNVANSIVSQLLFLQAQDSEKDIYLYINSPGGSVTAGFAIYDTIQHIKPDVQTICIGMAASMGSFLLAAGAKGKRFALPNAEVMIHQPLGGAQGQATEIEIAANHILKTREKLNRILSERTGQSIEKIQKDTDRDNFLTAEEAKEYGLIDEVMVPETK
Source text: In order to assess the different MccJ25 variants, we first chose S. aureus ClpP (SaClpP) as a model peptidase and performed in vitro degradation assays with the fluorogenic model peptide substrate Suc-LY-AMC. […] To investigate whether the MccJ25 variants can exert a stabilizing effect on the oligomeric structure of tetradecameric SaClpP, we conducted peptide degradation assays under destabilizing conditions employing a Tris buffer at pH 8.
This experimental setup was then used to differentiate the MccJ25 variants regarding their effect on ClpP stability. […] The apparent affinity constant was deduced from enzyme activity assays and represents the effector molecule concentration at half maximal stimulation of enzyme activity (the lower the apparent affinity constant, the higher the affinity). To exclude that 12IGF serves as a SaClpP substrate, we incubated a mixture of SaClpP and 12IGF under assay conditions for up to 260 min.
(§1) Peptide degradation assays were performed in black flat-bottom 96-well plates with a total reaction volume of 100 μL and reaction temperatures of 32 °C and 37 °C for SaClpP and BsClpP, respectively. Stock solutions of ADEP2 and MccJ25 WT or variants were dissolved in DMSO and pre-diluted to 100× of the final concentration. Accordingly, 1 μL of the respective stock solution was placed at the bottom of the wells. […] 50 μL of a 2× enzyme solution (final assay concentration: 1 μM) in activity buffer was added to the plate and incubated for 15 min at 32 °C and 37 °C for SaClpP and BsClpP activity assays, respectively. The enzyme reaction was started by addition of 49 μL of a solution of the fluorogenic model peptide substrate Suc-Leu-Tyr-AMC in activity buffer at a final concentration of 200 μM. For SaClpP assays, the activity buffer was comprised of 100 mM NaCl and 100 mM HEPES at pH 7. BsClpP activity buffer (50 mM Tris-HCl, 25 mM MgCl2, 200 mM KCl, 2 mM DTT, pH 8) was used in BsClpP assays as well as in SaClpP experiments, where the buffer composition was supposed to lead to oligomeric breakdown of the SaClpP tetradecamer to allow testing the activity retaining effect of ClpP agonists. The fluorescence read-out was measured using a Tecan (Crailsheim, Germany) M200Pro plate reader (excitation/emission: 380/460 nm) every 30–60 s for 1 h. Enzyme velocity was determined by linear regression of the initial segment of the fluorescence-time plot in GraphPad Prism 5 (GraphPad Software, San Diego, CA, USA). All assays were performed in triplicate and repeated at least two times.

[1] = tested on: Gram-negative RNA polymerase; settings: blocking of NTP uptake channel; cited from earlier work
Source text: (§2) Microcin J25 (MccJ25) is the most well-studied lasso peptide (Figure 2A). […] MccJ25 enters its target cells through hijacking the TonB-dependent siderophore receptor FhuA [8, 19, 20] which explains its narrow activity spectrum. MccJ25 originates from Escherichia coli AY25 [13] and thus can be produced very well heterolo ...

Enterobacteriaceae = settings: cited from earlier work
Source text: as §2

[2] = cited from earlier work
Source text: MccJ25 is exceptionally stable, even for lasso peptide standards.

BsClpP = target: T2, BsClpP (Bacillus subtilis, UniProt P80244); test: BsClpP peptidase activity, preparation not specified; format: biochemical, B. subtilis; settings: summary in discussion
T2 construct: His-tag (C); made in house; host or cells: E. coli BL21 (DE3)
T2 sequence (P80244 whole entry): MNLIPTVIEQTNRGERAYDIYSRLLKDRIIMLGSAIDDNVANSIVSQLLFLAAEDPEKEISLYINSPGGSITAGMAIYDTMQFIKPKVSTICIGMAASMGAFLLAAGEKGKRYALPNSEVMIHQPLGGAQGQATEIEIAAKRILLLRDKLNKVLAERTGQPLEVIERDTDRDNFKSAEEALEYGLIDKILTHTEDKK
Method: as §1

thermolysin = settings: cleavage e.g. between Phe10 and Val11; gas phase and solution; cited from earlier work
[3] = tested on: ClpPs from different organisms; settings: fully assembled ClpX hexamer; cited from earlier work
Source text: ClpX carries six coupled IGF motifs in a rather favorable orientation.

[4] = target: T3, S. aureus ClpP (Staphylococcus aureus), Q2G036; test: SEC; analytical gel filtration, Superdex 200 3.2 Increase; SaClpP in Tris buffer pH 8 (50 mM Tris-HCl, 25 mM MgCl2, 200 mM KCl, 2 mM DTT) with ADEP2; settings: remark: other sources report otherwise
T3 chain: T1 sequence (Q2G036 1-195)

[5] = target: T3, S. aureus ClpP (Staphylococcus aureus), …; test: SEC; analytical gel filtration, Superdex 200 3.2 Increase; SaClpP diluted 10x in BsClpP activity buffer (50 mM Tris-HCl, 25 mM MgCl2, 200 mM KCl, 2 mM DTT, pH 8), no effector; settings: remark: other sources report otherwise
[6] = target: T3, S. aureus ClpP (Staphylococcus aureus), …; test: SEC; gel filtration of apo-SaClpP in HEPES buffer, pH 7 (purification: Superdex 200 HiLoad 16/600, 100 mM NaCl, 20 mM HEPES, pH 7; analytical: Superdex 200 3.2 Increase, 100 mM HEPES, 100 mM NaCl, pH 7); settings: remark: other sources report otherwise
[7] = target: T3, S. aureus ClpP (Staphylococcus aureus), …; test: SEC; analytical gel filtration, Superdex 200 3.2 Increase; SaClpP in Tris buffer pH 8 (50 mM Tris-HCl, 25 mM MgCl2, 200 mM KCl, 2 mM DTT) with 12IGF; settings: remark: other sources report otherwise

Molecule: microcin J25 (GGAGHVPEYFVGIGTPISFYG; lactam N-8; also: lasso topology, tail threaded through ring) [WT MccJ25]
- SaClpP peptidase activity retained in Tris buffer (SaClpP; Tris buffer pH 8, 46 μM lasso peptide (Figure 4C), 32 °C, three independent experiments): only the three variants carrying the canonical tripeptide motif at positions 12–14 were able to retain SaClpP activity in Tris buffer
- effect on SaClpP activity (SaClpP; summary in discussion): neither WT MccJ25 nor several of the other mutated variants constructed in this study affected either of the ClpPs
- RNA polymerase inhibition [1]: inhibition of the Gram-negative RNA polymerase
- antibiotic activity (Enterobacteriaceae): exhibits antibiotic activity against Enterobacteriaceae
- thermal stability [2]: withstand autoclaving at 120 °C
- effect on BsClpP activity (BsClpP): neither WT MccJ25 nor several of the other mutated variants constructed in this study affected either of the ClpPs
- stability of [2]rotaxane after loop hydrolysis by thermolysin (thermolysin): does not cause ring and tail to dissociate

Molecule: ClpX: Clp-ATPase ClpX hexamer carrying six coupled IGF motifs
- ClpP affinity relative to ADEP2 [3]: weaker affinities than ADEP2

B1: S. aureus ClpP, Q2G036 1-195 (enzyme)
chain: T1 sequence (Q2G036 1-195)
- stoichiometry N [4]: 14
- stoichiometry N [5]: 7
- stoichiometry N [6]: 14
- stoichiometry N [7]: 14
